Assay results taken from US20070253950A1 (Pfizer, published 2007).

Legend:
[1] = biological target: T1, murine RAGE-strep tag fusion protein (murine, UniProt Q62151 23-343); experiment: BIACORE capture assay: mRAGE-SA (SA-Mu RAGE) over antibody captured on anti-human Fc; 1:1 Langmuir global fit; FC2
T1 construct: also called mRAGE-strep; mRAGE-SA
T1 chain: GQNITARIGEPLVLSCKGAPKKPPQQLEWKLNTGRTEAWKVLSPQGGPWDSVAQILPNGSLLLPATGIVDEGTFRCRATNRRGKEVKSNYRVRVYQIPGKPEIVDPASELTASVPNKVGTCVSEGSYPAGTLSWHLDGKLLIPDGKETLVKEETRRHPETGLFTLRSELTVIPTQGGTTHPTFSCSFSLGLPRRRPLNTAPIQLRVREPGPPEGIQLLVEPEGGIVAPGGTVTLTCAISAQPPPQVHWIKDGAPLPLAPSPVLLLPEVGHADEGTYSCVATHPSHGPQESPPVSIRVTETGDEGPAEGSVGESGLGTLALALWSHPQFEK
Experimental: (§1) The assays were performed by coating anti-human Fc antibodies onto a CM5 BIA chip with 5000 RU (pH 5.0, 7 min.) in flow cells 1-4. Each antibody was captured by flowing at 2.0 μg/ml over the anti-Fc antibodies in flow cells 2-4 (flow cell 1 was used as a reference).

[2] = biological target: T2, human RAGE-Fc fusion protein (human, UniProt Q15109 23-344); experiment: antibody competition ELISA on hRAGE-Fc; competitor: biotinylated XT-M4
T2 construct: amino acids 1-344 of human RAGE appended to the Fc domain of human IgG; also called hRAGE-Fc; huRAGE-Fc
Experimental: ELISA plates were coated overnight with 1 ug/ml human RAGE-Fc. […] Briefly, plates were coated overnight with 1 ug/ml human RAGE-Fc.

[3] = biological target: T3, human RAGE-strep tag fusion protein (human, UniProt Q15109 23-344); experiment: BIACORE capture assay: hRAGE-SA over antibody captured on anti-human Fc; 1:1 Langmuir global fit; average of FC2-FC4
T3 construct: monomeric soluble human RAGE; also called hRAGE-SA; soluble human streptavidin-tagged RAGE
Experimental: as §1

[4] = biological target: T3, human RAGE-strep tag fusion protein; experiment: BIACORE, antibody coated on CM5 chip, hRAGE-SA in flow
Experimental: The assays were performed by coating antibodies onto a CM5 BIA chip with 5000-7000 RU.

[5] = biological target: T2, human RAGE-Fc fusion protein; experiment: ligand competition ELISA, panel 'Blocks hRAGE-Fc interaction with HMGB1'; blocked ligand HMGB1
[6] = biological target: T3, human RAGE-strep tag fusion protein; experiment: BIACORE capture assay: hRAGE-SA over antibody captured on anti-human Fc; 1:1 Langmuir global fit; FC2
Experimental: as §1

[7] = biological target: T3, human RAGE-strep tag fusion protein; experiment: BIACORE capture assay: hRAGE-SA over antibody captured on anti-human Fc; steady state affinity; FC3
Experimental: as §1

[8] = biological target: T3, human RAGE-strep tag fusion protein; experiment: BIACORE capture assay: hRAGE-SA over antibody captured on anti-human Fc; steady state affinity; FC4
Experimental: as §1

[9] = biological target: T3, human RAGE-strep tag fusion protein; experiment: BIACORE capture assay: hRAGE-SA over antibody captured on anti-human Fc; 1:1 Langmuir global fit; FC4
Experimental: as §1

[10] = biological target: T1, murine RAGE-strep tag fusion protein; experiment: BIACORE capture assay: mRAGE-SA (SA-Mu RAGE) over antibody captured on anti-human Fc; 1:1 Langmuir global fit; FC3
Experimental: as §1

[11] = biological target: T3, human RAGE-strep tag fusion protein; experiment: BIACORE, antibody coated on CM5 chip, hRAGE-SA in flow; remark: listed apart in the source

B1: chimeric XT-M4 (antibody, V domains shown)
VH: EVQLVESGGGLVQPGRSLKLSCVVSGFTFNNYWMTWIRQTPGKGLEWVASINNSGDNTYYPDSVKDRFTISRDNAKSTLYLQMNSLRSEDTATYYCTRGGDITTGFDYWGQGVMVTVSS
VL: DIQMTQSPSSMSVSLGDTITITCRASQDVGIYVNWFQQKPGKSPRRMIYRATNLADGVPSRFSGSRSGSIYSLTISSLESEDVADYHCLEFDEHPLTFGSGTKVEIK
modifications: N-linked oligosaccharide at Asn52 (CDR2) on part of the heavy chains
notes: rat XT-M4 variable regions fused to human kappa light chain and human IgG1 heavy chain constant regions; L234A and G237A in the human IgG1 Fc region; also called chimeric antibody XT-M4; XT-M4-A-1
With B1 the Kd [1] was 1.9 nM, the koff [1] was 0.0042 s⁻¹ and the kon [1] was 2.2e+06 M⁻¹ s⁻¹. The “IC50 (read off the curve)” value [2] was about 0.4 µg/mL, the Kd [3] was 7.91 nM and the koff [3] was 0.0351 s⁻¹. It also gave a kon [3] of 4.41e+06 M⁻¹ s⁻¹, a Ka [4] of 1.77e+08 M⁻¹ and a Kd [4] of 5.66 nM. The koff [4] was 0.0248 s⁻¹, the kon [4] was 4.39e+06 M⁻¹ s⁻¹ and the “IC50 (read off the curve)” value [5] was about 0.1 µg/mL. It also gave a Kd [6] of 8.2 nM, a koff [6] of 0.0281 s⁻¹ and a kon [6] of 3.42e+06 M⁻¹ s⁻¹. It also gave a Kd [7] of 11 nM, a Kd [8] of 11 nM and a Kd [9] of 8.2 nM. The koff [9] was 0.05 s⁻¹, the kon [9] was 6.1e+06 M⁻¹ s⁻¹ and the Kd [10] was 1.9 nM. It also gave a koff [10] of 0.0041 s⁻¹, a kon [10] of 2.1e+06 M⁻¹ s⁻¹ and a Kd [11] of about 5.5 nM.
